One block for each molecule: values may come before it.
Columns and labels:
[1] = molecular target: CHC22Δx9 (human) (UniProt P53675); assay: deep-etch electron microscopy; purified CHC isoforms adsorbed on mica flakes, quick-frozen, freeze-fractured, deep-etched, platinum-replicated; CHC22Δx9 released in high Tris buffer pH 7.0, CHC17 released in HEPES buffer pH 7.0
[2] = molecular target: CHC22 clathrin heavy chain (human (endogenous in HeLa)) (UniProt P53675)
[3] = molecular target: CHC17 clathrin heavy chain (human (endogenous in HeLa)) (UniProt Q00610)
[4] = molecular target: T1, CHC17 clathrin heavy chain (human (endogenous in HeLa)), Q00610; assay: deep-etch electron microscopy; purified CHC isoforms adsorbed on mica flakes, quick-frozen, freeze-fractured, deep-etched, platinum-replicated; CHC22Δx9 released in high Tris buffer pH 7.0, CHC17 released in HEPES buffer pH 7.0; conditions: remark: other sources report otherwise
T1 chain: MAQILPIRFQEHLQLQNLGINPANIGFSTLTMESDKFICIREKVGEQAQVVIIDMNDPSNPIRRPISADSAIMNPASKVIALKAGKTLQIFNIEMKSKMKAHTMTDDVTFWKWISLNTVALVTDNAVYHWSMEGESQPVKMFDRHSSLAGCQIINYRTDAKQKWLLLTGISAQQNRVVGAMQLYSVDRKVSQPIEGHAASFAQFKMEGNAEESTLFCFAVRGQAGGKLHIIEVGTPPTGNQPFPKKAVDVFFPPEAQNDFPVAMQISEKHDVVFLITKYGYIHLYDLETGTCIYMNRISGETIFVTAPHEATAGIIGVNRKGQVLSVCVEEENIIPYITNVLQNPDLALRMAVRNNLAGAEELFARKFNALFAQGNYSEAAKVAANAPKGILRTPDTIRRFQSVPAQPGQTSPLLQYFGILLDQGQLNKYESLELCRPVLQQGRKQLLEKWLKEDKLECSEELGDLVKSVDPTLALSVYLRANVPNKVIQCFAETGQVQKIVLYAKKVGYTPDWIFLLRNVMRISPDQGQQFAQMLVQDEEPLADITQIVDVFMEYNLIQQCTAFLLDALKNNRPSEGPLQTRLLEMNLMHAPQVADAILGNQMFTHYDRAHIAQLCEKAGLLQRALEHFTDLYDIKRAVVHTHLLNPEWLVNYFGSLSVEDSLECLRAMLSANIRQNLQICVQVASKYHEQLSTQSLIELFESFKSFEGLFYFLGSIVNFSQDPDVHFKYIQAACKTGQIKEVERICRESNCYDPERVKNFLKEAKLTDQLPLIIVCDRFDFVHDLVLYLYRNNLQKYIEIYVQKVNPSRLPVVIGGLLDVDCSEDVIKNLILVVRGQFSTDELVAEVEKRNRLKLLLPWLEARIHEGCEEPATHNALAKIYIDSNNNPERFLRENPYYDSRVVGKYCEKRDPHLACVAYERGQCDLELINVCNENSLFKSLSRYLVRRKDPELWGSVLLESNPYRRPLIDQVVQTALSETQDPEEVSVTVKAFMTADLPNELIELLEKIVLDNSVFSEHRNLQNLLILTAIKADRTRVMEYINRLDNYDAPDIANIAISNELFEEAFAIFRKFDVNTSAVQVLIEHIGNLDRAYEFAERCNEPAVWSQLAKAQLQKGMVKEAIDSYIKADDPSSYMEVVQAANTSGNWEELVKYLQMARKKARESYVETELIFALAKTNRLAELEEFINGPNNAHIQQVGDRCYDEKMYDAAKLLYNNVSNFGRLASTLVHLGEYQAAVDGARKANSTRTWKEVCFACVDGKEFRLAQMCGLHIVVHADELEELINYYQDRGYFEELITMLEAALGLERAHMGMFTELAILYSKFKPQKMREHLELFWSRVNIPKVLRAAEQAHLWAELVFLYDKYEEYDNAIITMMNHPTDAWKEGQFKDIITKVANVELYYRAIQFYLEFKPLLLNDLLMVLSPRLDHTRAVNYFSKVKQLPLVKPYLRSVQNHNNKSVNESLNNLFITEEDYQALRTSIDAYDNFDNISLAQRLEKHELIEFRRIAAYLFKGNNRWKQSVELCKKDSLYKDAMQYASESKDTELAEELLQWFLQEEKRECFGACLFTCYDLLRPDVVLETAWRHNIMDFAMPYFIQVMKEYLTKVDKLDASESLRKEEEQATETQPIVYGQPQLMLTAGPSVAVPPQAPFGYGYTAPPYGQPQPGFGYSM

Sequence of UniProt P53675 (P53675 whole entry, canonical isoform): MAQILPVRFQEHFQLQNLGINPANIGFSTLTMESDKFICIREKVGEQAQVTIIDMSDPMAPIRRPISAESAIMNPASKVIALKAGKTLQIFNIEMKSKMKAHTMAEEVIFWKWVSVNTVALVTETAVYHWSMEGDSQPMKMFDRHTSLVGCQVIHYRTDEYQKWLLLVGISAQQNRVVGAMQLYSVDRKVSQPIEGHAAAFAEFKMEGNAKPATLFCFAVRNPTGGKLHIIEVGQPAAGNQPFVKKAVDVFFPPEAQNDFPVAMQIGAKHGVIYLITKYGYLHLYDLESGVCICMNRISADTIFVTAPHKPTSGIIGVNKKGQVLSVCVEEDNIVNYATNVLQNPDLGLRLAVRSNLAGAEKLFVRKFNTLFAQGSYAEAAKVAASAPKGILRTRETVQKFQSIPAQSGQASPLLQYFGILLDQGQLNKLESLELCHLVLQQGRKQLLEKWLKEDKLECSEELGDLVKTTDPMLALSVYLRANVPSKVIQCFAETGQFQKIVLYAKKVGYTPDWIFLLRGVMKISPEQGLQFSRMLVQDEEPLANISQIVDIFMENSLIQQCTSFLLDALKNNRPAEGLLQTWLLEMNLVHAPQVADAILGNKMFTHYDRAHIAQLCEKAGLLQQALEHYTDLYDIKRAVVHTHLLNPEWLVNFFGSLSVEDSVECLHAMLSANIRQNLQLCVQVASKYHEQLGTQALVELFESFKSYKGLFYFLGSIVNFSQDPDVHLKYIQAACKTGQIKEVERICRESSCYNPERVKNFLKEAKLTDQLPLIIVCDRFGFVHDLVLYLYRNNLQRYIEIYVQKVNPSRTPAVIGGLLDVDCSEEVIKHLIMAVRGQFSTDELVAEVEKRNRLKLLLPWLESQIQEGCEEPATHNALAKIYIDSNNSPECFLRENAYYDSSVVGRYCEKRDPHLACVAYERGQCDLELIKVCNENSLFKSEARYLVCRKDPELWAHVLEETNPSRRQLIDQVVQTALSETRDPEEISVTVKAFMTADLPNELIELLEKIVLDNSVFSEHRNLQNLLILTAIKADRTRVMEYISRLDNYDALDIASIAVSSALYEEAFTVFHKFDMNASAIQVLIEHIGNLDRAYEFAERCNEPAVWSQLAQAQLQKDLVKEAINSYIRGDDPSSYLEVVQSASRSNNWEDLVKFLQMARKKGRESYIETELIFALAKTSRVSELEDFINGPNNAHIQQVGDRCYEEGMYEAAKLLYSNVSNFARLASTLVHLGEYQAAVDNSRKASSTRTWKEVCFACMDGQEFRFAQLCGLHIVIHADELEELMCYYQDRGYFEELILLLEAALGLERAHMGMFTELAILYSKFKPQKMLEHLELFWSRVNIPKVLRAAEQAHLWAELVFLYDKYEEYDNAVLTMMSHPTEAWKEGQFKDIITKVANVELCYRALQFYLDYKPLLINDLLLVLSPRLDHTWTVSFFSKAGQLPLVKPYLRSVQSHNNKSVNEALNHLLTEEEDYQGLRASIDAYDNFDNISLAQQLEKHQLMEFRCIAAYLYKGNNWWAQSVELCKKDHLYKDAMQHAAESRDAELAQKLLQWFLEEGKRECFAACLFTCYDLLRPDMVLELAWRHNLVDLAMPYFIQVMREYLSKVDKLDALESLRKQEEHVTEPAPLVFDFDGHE

stoichiometry N [1]: 3
Molecule: CHC22Δx9 (from UniProt P53675 1-1640) (natural protein)

release of CHC from HeLa CCVs into the supernatant, S/(S+P) by immunoblot, with uncoating complex (Hsc70 1.3 μM + GST-auxilin(401–910) 0.13 μM) plus ATP 0.5 mM, 10 min, 37 °C [2]: 16%
release of CHC from HeLa CCVs into the supernatant, S/(S+P) by immunoblot, with uncoating complex (Hsc70 1.3 μM + GST-auxilin(401–910) 0.13 μM) plus ATP 0.5 mM, 10 min, 37 °C [3]: > 50%
Molecule: 70-kDa heat-shock cognate protein (Hsc70) (from UniProt P63018 1-646) (enzyme)

stoichiometry N [4]: 3
B1: CHC17 clathrin heavy chain, Q00610 1-1675 (natural protein)
chain: T1 chain

Reference: PMC5743061
